According to article PMC2518108:

What was measured:
[1] = biological target: human IGF-II (human); experiment: SPR; BIAcore T100, CM5 chip; human IGF-I (120 RU) or IGF-II (138 RU) amine-coupled; IGFBP-1s injected 60 s, 5 min dissociation; 25 C, HBS (10 mM HEPES, 150 mM NaCl, 3 uM EDTA, 0.05% TWEEN-20, pH 7.4), 30 uL/min; 1:1 model fitted globally, KD = kd/ka
[2] = biological target: human IGF-I (human) (UniProt P05019); experiment: as above
Sequence of human IGF-I (human) (P05019 49-118): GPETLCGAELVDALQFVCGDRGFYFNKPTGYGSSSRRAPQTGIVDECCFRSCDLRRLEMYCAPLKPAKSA

Sequence of human IGFBP-1 (P08833 26-259): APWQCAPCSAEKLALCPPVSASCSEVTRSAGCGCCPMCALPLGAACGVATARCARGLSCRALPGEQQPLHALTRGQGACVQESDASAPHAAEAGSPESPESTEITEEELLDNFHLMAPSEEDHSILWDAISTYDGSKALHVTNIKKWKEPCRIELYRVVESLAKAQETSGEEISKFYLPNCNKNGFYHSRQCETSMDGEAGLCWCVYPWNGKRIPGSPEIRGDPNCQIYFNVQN

Substance	Kd [1] [nM]	koff [1] [s⁻¹]	kon [1] [M⁻¹ s⁻¹]	Kd [2] [nM]	koff [2] [s⁻¹]	kon [2] [M⁻¹ s⁻¹]
human IGFBP-1 (from UniProt P08833 26-259) (natural protein)	8.63	0.000457	53000	–	–	–
zebrafish IGFBP-1a (natural protein)	0.34	0.00029	867000	0.28	0.000332	1.18e+06
zebrafish IGFBP-1b (from UniProt A4K8J2 1-244) (natural protein)	9.33	0.00926	993000	–	–	–
